From patent publication US20260250410A1 (SICHUAN HUIYU PHARMACEUTICAL, published 2026)
Changes are numbered by the printed parent chain.

B1: 1CP-124 (antibody, human IgG1, kappa, V domains shown)
VH: QVQLVQSGAEVKKPGASVKVSCKASGYNFISYWLHWVRQAPGQGLEWMGGIYPGNTDTTYNQKFKGRVTMTRDTSTSTVYMELSSLRSEDTAVYYCIRYDYDRGMDYWGQGTLVTVSS
VL: DIQMTQSPSSLSASVGDRVTITCRASEDIYYRLAWYQQKPGKAPKLLISGATALETGVPSRFSGSGSGKDYTFTISSLQPEDIATYYCQHYWNIPWTFGQGTKVEIKR
notes: humanized 3C11, human IgG1 kappa
B2: 1CP-129 (antibody, human IgG1, kappa, V domains shown)
VH: B1 VH with R72A
VL: B1 VL with F73L
notes: as for B1
B3: 1CP-128 (antibody, human IgG1, kappa, V domains shown)
VH: B1 VH
VL: B1 VL with F73L
notes: as for B1
B4: 1CP-125 (antibody, human IgG1, kappa, V domains shown)
VH: B1 VH with R72A
VL: B1 VL
notes: as for B1
B5: 1CP-152 (antibody, human IgG1, kappa, V domains shown)
VH: EVQLVESGGGLVQPGRSLRLSCTTSGLTFTHYHMSWVRQAPGKGLEWVAIIRNKAYGYTTDYSASVRGRFTISRDDSKSILYLQMNSLKTEDTAVYYCVREGGYGYDGTFAYWGQGTLVTVSS
VL: DIQMTQSPSSLSASVGDRVTITCRASESVDNYGISFMNWFQQKPGQAPKLLIYAASNQGSGVPSRFSGSGSGTDFTLTISSMQPEDFATYYCQQSKEVPRTFGGGTKVEIKR
notes: humanized 8C9, human IgG1 kappa
B6: 1CP-157 (antibody, human IgG1, kappa, V domains shown)
VH: B5 VH with L45P
VL: B5 VL with A47P
notes: as for B5

Experiments:
[1] = target: T1, human CDCP1 on tumor cells (human, UniProt Q9H5V8 30-836); experiment: flow cytometry, MDA-MB-231 cells
T1 construct: whole, on cells; cell line is named under assay or readout
T1 sequence (looked up): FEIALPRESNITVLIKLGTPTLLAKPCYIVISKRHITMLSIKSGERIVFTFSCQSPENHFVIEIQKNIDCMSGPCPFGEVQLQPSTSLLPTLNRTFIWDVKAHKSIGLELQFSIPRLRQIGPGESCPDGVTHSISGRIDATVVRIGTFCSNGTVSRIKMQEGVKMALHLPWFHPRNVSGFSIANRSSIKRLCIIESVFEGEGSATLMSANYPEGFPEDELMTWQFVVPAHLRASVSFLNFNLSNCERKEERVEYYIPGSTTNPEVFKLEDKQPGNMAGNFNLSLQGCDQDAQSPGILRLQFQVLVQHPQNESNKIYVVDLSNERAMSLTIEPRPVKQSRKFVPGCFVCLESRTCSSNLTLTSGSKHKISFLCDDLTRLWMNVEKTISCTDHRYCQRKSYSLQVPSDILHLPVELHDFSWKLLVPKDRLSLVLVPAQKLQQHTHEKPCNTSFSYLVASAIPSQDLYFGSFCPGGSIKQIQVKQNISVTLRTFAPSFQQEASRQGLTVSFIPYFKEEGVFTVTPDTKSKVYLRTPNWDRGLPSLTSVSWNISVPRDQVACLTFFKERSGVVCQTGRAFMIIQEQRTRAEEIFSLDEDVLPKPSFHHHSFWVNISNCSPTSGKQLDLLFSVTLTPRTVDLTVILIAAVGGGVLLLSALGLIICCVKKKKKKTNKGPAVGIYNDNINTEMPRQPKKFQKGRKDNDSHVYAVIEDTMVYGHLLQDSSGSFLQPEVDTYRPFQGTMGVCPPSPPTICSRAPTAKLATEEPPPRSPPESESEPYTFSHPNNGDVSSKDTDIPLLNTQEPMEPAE
Experimental: Referring to the method of Example 4, MDA-MB-231 cells were taken and subjected to digestion with 5 mM EDTA, 2×10⁴ tumor cells were added respectively per well, and 50 μL (PBS+2% FBS) were added; after blocking at room temperature with Fc blocker for 10 mins, an anti-CDCP1 humanized antibody at a final concentration of 200 nM was added. The obtained mixture was subjected to a 3-fold serial dilution across 8 concentration points, incubated at 4° C. for 30 mins, centrifuged and washed, and then a secondary antibody (PE anti-human IgG Fc Antibody, Biolegend, 410708) was added, then detection was performed using a flow cytometer. Geo-MFI (geometric mean fluorescence signal value) was used as the preliminary signal of antibody-cell binding, curve fitting was performed using graphpad, and the binding capacity of antibody to cells was calculated.

HuCDCP1-A = target: T2, HuCDCP1-A (human, UniProt Q9H5V8 30-430); experiment: SPR (Caterra), antigen immobilized
T2 construct: range 30-430; expressed in HEK-293T, purified by Fc/his tag; also called human CDCP1-A; membrane-distal region of CDCP1; not shown: Fc or his tag
T2 sequence (looked up): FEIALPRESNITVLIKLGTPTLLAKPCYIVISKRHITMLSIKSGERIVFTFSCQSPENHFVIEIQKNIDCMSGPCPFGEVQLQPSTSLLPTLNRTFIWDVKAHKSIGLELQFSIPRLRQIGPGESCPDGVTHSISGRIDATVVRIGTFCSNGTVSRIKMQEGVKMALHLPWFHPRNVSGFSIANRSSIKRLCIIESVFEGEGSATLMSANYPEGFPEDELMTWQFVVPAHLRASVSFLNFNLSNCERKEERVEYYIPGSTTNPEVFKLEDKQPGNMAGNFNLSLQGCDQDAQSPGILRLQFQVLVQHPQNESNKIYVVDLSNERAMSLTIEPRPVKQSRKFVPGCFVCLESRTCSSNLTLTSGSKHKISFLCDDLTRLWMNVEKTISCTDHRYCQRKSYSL

HuCDCP1-C = target: T3, HuCDCP1-C (human, UniProt Q9H5V8 30-667); experiment: SPR (Caterra), antigen immobilized
T3 construct: range 30-667; expressed in HEK-293T, purified by Fc/his tag; also called human CDCP1-C; full-length extracellular domain of human CDCP1; not shown: Fc or his tag
T3 sequence (looked up): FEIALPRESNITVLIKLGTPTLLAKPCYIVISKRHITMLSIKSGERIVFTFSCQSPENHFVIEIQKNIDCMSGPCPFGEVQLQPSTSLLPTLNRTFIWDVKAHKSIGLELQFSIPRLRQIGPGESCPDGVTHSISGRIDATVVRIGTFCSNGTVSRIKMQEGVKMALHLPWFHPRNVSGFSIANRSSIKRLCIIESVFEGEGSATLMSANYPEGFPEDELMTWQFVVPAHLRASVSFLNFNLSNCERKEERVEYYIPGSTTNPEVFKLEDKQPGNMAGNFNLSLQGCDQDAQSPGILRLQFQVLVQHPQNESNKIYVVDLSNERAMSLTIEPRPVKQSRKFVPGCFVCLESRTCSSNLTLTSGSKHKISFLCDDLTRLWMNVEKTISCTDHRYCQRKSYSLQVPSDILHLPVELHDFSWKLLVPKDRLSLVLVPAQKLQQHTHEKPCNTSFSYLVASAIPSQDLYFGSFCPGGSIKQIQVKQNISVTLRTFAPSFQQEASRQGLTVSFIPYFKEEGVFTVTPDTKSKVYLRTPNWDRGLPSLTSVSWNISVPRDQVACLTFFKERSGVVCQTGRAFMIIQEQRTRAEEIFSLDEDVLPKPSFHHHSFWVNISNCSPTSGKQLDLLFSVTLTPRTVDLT
Experimental: The humanized anti-CDCP1 antibodies obtained from Example 11 were subjected to gene cloning, constructed into pTT5 expression vector for a small amount of expression in CHO cells (Expi-CHOS: Gibco A29127), and purified with an Fc affinity column (AT Protein A Diamond Plus. No. AA402312). Antibody purity was analyzed by HPLC and determined by Nanodrop. High-throughput affinity assay was carried out for a small amount of antibodies by Caterra.

Row | Binder | EC50 [1] [nM] | Kd (HuCDCP1-A) [nM] | Kd (HuCDCP1-C) [nM] | koff (HuCDCP1-C) [s⁻¹] | kon (HuCDCP1-C) [M⁻¹ s⁻¹]
1 | B1 | 0.38 | 132 | 0.0993 | 1.47e-05 | 148000
2 | B2 | 0.34 | 126 | ≤ 0.0623 | ≤ 1e-05 | 160000
3 | B3 | 0.32 | 76 | ≤ 0.0717 | ≤ 1e-05 | 139000
4 | B4 | 0.95 | 559 | 0.144 | 2.17e-05 | 151000
5 | B5 | 2.82 | 105 | 4.09 | 0.000465 | 114000
6 | B6 | 2.5 | 226 | 3.14 | 0.000385 | 122000
